From patent US20190106460A1 (published 2019)
Values joined by “and” are separate entries in the source; they are usually repeats but may differ in a detail not shown here. Identical values can stand only once. Starred links: 1 amine or outer side, 2 acyl side, 3 side chain; linkers in the order of their positions; H or OH if unused. Non-standard residues stand in square brackets, D forms with d. Phe(4-NO2) = N[C@@H](Cc1ccc([N+](=O)[O-])cc1)C(=O)O; Phe(4-Br) = N[C@@H](Cc1ccc(Br)cc1)C(=O)O; Phe(3-F) = N[C@@H](Cc1cccc(F)c1)C(=O)O; Phe(4-F) = N[C@@H](Cc1ccc(F)cc1)C(=O)O; Suc = O=C(CCC(=O)[*:2])[*:1]; βE = a beta form of Glu

Target: T1, βTrCP (tag cleaved and complexed with Skp1) (UniProt Q9Y297 175-605; P63208 1-163)
T1 construct: Protein of the FP assay (0.035 µM); also called Beta Transducin repeat-containing protein; βTrCP/Skp1
T1 sequence (Q9Y297 175-605, chain 1 of 2): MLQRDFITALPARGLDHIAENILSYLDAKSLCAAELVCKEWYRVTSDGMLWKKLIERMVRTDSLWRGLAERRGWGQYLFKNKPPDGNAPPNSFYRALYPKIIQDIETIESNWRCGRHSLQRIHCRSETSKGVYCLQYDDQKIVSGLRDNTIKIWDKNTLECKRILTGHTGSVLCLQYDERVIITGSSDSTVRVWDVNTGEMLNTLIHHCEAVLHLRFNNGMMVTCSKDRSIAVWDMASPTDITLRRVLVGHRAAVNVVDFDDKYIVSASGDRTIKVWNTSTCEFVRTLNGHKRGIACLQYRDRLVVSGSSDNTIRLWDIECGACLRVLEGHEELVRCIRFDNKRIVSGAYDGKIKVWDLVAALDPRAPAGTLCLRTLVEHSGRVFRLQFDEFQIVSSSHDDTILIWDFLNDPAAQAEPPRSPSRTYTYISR
T1 sequence (P63208 whole entry, chain 2 of 2): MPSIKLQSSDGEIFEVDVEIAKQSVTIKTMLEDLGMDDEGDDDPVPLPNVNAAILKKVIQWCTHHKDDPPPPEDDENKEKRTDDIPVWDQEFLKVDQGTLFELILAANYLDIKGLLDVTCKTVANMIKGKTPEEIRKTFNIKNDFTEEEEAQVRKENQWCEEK
Experiment: FP competition vs fluorescein-IκB peptide

| Binder | IC50 |
| --- | --- |
| Suc-EG[Phe(3-F)][Phe(3-F)]-NH2 (SMILES NC(=O)[C@H](Cc1cccc(F)c1)NC(=O)[C@H](Cc1cccc(F)c1)NC(=O)CNC(=O)[C@H](CCC(=O)O)NC(=O)CCC(=O)O) [Suc-EG-F(3F)-F(3F)-NH2] | 44 µM |
| Suc-EGY[Phe(3-F)]-NH2 (SMILES NC(=O)[C@H](Cc1cccc(F)c1)NC(=O)[C@H](Cc1ccc(O)cc1)NC(=O)CNC(=O)[C@H](CCC(=O)O)NC(=O)CCC(=O)O) [Suc-EGY-F(3F)-NH2] | 91 µM |
| Suc-EGY[Phe(4-F)]-NH2 (SMILES NC(=O)[C@H](Cc1ccc(F)cc1)NC(=O)[C@H](Cc1ccc(O)cc1)NC(=O)CNC(=O)[C@H](CCC(=O)O)NC(=O)CCC(=O)O) [Suc-EGY-F(4F)-NH2] | 71 µM |
| Suc-EGY[Phe(4-NO2)]-NH2 (SMILES NC(=O)[C@H](Cc1ccc([N+](=O)[O-])cc1)NC(=O)[C@H](Cc1ccc(O)cc1)NC(=O)CNC(=O)[C@H](CCC(=O)O)NC(=O)CCC(=O)O) [Suc-EGY-F(4NO2)-NH2] | 91 µM |
| Suc-EGYF-NH2 [Suc-EGYF-NH2] | 31 µM |
| Suc-QGYF-NH2 (SMILES NC(=O)CC[C@H](NC(=O)CCC(=O)O)C(=O)NCC(=O)N[C@@H](Cc1ccc(O)cc1)C(=O)N[C@@H](Cc1ccccc1)C(N)=O) [Suc-QGYF-NH2] | 49 µM |
| Suc-EG[Phe(4-Br)][Phe(3-F)]-NH2 (SMILES NC(=O)[C@H](Cc1cccc(F)c1)NC(=O)[C@H](Cc1ccc(Br)cc1)NC(=O)CNC(=O)[C@H](CCC(=O)O)NC(=O)CCC(=O)O) [Suc-EG-F(4Br)-F(3F)-NH2] | 81 µM |
| Suc-EG[Phe(4-Br)]F-NH2 (SMILES NC(=O)[C@H](Cc1ccccc1)NC(=O)[C@H](Cc1ccc(Br)cc1)NC(=O)CNC(=O)[C@H](CCC(=O)O)NC(=O)CCC(=O)O) [Suc-EG-F(4Br)-F-NH2] | 38 µM and 39 µM |
| Suc-EG[Phe(4-NO2)][Phe(4-NO2)]-NH2 (SMILES NC(=O)[C@H](Cc1ccc([N+](=O)[O-])cc1)NC(=O)[C@H](Cc1ccc([N+](=O)[O-])cc1)NC(=O)CNC(=O)[C@H](CCC(=O)O)NC(=O)CCC(=O)O) [Suc-EG-F(4NO2)-F(4NO2)-NH2] | 78 µM |
| Suc-EGFF-NH2 (SMILES NC(=O)[C@H](Cc1ccccc1)NC(=O)[C@H](Cc1ccccc1)NC(=O)CNC(=O)[C@H](CCC(=O)O)NC(=O)CCC(=O)O) [Suc-EGFF-NH2] | 46 µM |
| Suc-[βE]GYFE-NH2 (not fully specified; printed as Suc-βE-GYFE-NH2) [Suc-βE-GYFE-NH2] | 30 µM |
